Laboratory results published in patent publication US20260242485A1 (LEPU BIOPHARMA, published 2026).
Values belong to the binder of their own block, whether it stands above or below them.

Key:
[1] = target: T1, human CD16A-158V expressed on CHO-K1 cells (human, UniProt P08637 17-254); experiment: flow cytometry, CHO-K1-hCD16A-158V cells, geometric mean
T1 construct: whole, on cells; also called hCD16A-158V; CHO-K1-hCD16A-158V

[2] = target: T2, human CD16A-158F expressed on CHO-K1 cells (human, UniProt P08637 17-254); experiment: flow cytometry, CHO-K1-hCD16A-158F cells, Alexa Fluor 647 anti-human IgG Fc, geometric mean
T2 construct: whole, on cells
T2 sequence (P08637 17-254): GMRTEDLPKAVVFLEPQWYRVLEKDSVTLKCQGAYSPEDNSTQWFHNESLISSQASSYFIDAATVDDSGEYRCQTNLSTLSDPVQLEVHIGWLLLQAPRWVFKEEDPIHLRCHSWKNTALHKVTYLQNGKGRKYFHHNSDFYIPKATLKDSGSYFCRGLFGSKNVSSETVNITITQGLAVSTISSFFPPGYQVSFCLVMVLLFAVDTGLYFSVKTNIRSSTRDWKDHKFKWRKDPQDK
Method: (§1) In order to evaluate the binding activity of the chimeric mAbs to human CD16A expressed on cells, cell-based binding assay was employed as followed. […] The antibody dilutions were incubated with 1×10⁵ indicated cells in the 96-well microplate for one hour at 4° C. The antibodies binding to the antigen on the cell surface were detected with PE fluorophore-conjugated anti-human IgG Fc secondary antibodies (ThermoFisher scientific, Cat. No. 12-4998-82) at a dilution rate of 1:1000. Cells were analyzed by flow cytometer LSRFortessa Cell Analyzer (BD Biosciences). Data were analyzed with Flowjo 10.0 software. The graph and statistics analysis were generated with four-parameter nonlinear regression curve fit in Graphpad Prism 9 software.
(§2) The assay was performed following the protocol described above. The antibodies binding to the antigen on the cell surface were detected with Alexa Fluor® 647 AffiniPure™ F(ab′)₂ fragment goat anti-human IgG Fcγ fragment specific secondary antibody (Jackson Immuno Research, Cat. No. 109-606-098) at a dilution rate of 1:2000.

[3] = target: T1, human CD16A-158V expressed on CHO-K1 …; experiment: flow cytometry on antigen-expressing CHO-K1 cells
Method: as §1
(§3) CHO-K1 cells stably expressing cynomolgus CD16 were used in the following test.

[4] = target: T3, cynomolgus CD16 expressed on CHO-K1 cells (cynomolgus, UniProt Q8SPW2 17-254); experiment: flow cytometry on antigen-expressing CHO-K1 cells
T3 construct: whole, on cells; also called cyno CD16; CHO-K1-cynoCD16
T3 sequence (Q8SPW2 17-254): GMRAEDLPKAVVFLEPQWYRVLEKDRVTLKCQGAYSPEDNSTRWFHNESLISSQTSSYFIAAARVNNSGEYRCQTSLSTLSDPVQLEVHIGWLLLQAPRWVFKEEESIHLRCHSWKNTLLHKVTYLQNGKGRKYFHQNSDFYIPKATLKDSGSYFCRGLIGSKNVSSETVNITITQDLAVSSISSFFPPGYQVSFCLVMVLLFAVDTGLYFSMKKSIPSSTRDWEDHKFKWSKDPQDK
Method: as §1, §3

[5] = target: T2, human CD16A-158F expressed on CHO-K1 …; experiment: flow cytometry on antigen-expressing CHO-K1 cells
Method: as §1, §3

[6] = target: T1, human CD16A-158V expressed on CHO-K1 …; experiment: flow cytometry, CHO-K1-hCD16A-158V cells, Alexa Fluor 647 anti-human IgG Fc, geometric mean
Method: as §1, §2

[7] = target: T4, human CD32B expressed on CHO-K1 cells (human, UniProt P31994 43-310); experiment: flow cytometry, CHO-K1-hCD32B cells, geometric mean
T4 construct: whole, on cells; also called hCD32B
T4 sequence (looked up): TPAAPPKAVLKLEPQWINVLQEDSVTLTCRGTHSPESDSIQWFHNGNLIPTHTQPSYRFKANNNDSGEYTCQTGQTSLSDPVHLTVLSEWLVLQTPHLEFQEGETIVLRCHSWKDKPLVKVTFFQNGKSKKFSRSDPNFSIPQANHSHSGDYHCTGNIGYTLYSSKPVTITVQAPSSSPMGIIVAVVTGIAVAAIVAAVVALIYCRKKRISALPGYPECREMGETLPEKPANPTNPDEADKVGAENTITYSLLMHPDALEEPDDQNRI
Method: as §1
To exclude the non-specific binding of the CD16A chimeric antibody to human CD16B and CD32B expressed on cells, cell-based binding assay was performed as described above. Firstly, CHO-K1 cells were stably transferred with one human CD16B spliced isoform hCD16B-NA1 and human CD32B. Then, the cells were incubated with the indicated concentrations of CD16A chimeric antibodies.

[8] = target: T2, human CD16A-158F expressed on CHO-K1 …; experiment: flow cytometry, CHO-K1-hCD16A-158F cells, geometric mean
[9] = target: T3, cynomolgus CD16 expressed on CHO-K1 …; experiment: flow cytometry, CHO-K1-cyno CD16 cells, Alexa Fluor 647 anti-human IgG Fc, geometric mean
Method: as §1, §2

[10] = target: T3, cynomolgus CD16 expressed on CHO-K1 …; experiment: flow cytometry, CHO-K1-cyno CD16 cells, geometric mean
Method: as §1
(§4) The assay was performed following the protocol described above.

[11] = target: T5, hCD16A-158V-his protein (human, UniProt P08637 17-208); experiment: SPR (Biacore 8K), antibody captured on Protein A chip, antigen at 50 nM
T5 construct: extracellular domain; Bought protein; also called human CD16A-158V-his; Human CD16A-158V (protein)
T5 sequence (P08637 17-208 F176V): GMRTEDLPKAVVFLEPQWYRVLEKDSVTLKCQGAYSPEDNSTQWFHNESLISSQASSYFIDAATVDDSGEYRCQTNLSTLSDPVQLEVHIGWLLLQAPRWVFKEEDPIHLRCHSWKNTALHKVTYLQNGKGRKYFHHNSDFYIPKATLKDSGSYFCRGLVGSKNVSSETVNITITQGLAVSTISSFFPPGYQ
Method: (§5) The binding affinity of the chimeric antibodies to human CD16A was determined with Biacore™. Briefly, the antibodies were captured with a Protein A chip. […] The antigen was allowed to dissociate for 500 s. The experiment was carried out on a Biacore™ 8K. Data analysis was carried out using Biacore™ 8K evaluation software.

[12] = target: T6, hCD16A-158F-his protein (human, UniProt P08637 17-208); experiment: as above
T6 construct: Bought protein
T6 sequence (P08637 17-208 limits assumed): as the sequence (P08637 17-208 F176V) above, with V160F counted along it
Method: as §5

[13] = target: T2, human CD16A-158F expressed on CHO-K1 …; experiment: flow cytometry, CHO-K1-hCD16A-158F cells, geometric mean; remark: listed apart in the source
Method: as §1, §4

[14] = target: T1, human CD16A-158V expressed on CHO-K1 …; experiment: flow cytometry, CHO-K1-hCD16A-158V cells, geometric mean; remark: listed apart in the source
Method: as §1, §4

T1 sequence (P08637 17-254 F176V): as the sequence (P08637 17-254) above, with F160V counted along it

EC50 (read off the curve) [1]: ~0.5 nM
EC50 (read off the curve) [2]: ~0.4 nM
EC50 [3]: 0.36 nM
EC50 [4]: 1.74 nM
EC50 [5]: 0.4 nM
EC50 (read off the curve) [6]: ~0.4 nM
binding result [7]: no binding (tested: 100 nM)
EC50 (read off the curve) [8]: ~0.5 nM
EC50 (read off the curve) [9]: ~1 nM
EC50 (read off the curve) [10]: ~0.7 nM
Kd [11]: 1.86 nM
koff [11]: 0.00655 s⁻¹
kon [11]: 3.52e+06 M⁻¹ s⁻¹
Kd [12]: 1.17 nM
koff [12]: 0.00455 s⁻¹
kon [12]: 3.9e+06 M⁻¹ s⁻¹
EC50 (read off the curve) [13]: ~0.4 nM
EC50 (read off the curve) [14]: ~0.4 nM
B1: 45H6E8-hIgG1 LALAPG (antibody)
heavy: EVQLQQSGAELVRSGASVKLSCTASGFNIKDYYMQWVKQRPEQGLEWIGWIDPENGDTEYAPKFQGKATMTADTSSNTAYLQLSSLTSEDTAVYYCTTGGNYVDWGQGTTLTVSSASTKGPSVFPLAPSSKSTSGGTAALGCLVKDYFPEPVTVSWNSGALTSGVHTFPAVLQSSGLYSLSSVVTVPSSSLGTQTYICNVNHKPSNTKVDKKVEPKSCDKTHTCPPCPAPEAAGGPSVFLFPPKPKDTLMISRTPEVTCVVVDVSHEDPEVKFNWYVDGVEVHNAKTKPREEQYNSTYRVVSVLTVLHQDWLNGKEYKCKVSNKALGAPIEKTISKAKGQPREPQVYTLPPSREEMTKNQVSLTCLVKGFYPSDIAVEWESNGQPENNYKTTPPVLDSDGSFFLYSKLTVDKSRWQQGNVFSCSVMHEALHNHYTQKSLSLSPGK
light: DIVMTQSQKFMSTSVGDRVSITCKASQNVGTAVAWYQQKPGQSPKLLIYSASNRYTGVPDRFTGSGSGTDFTLTISNMQSEDLADYFCQQYSSYPLLTFGAGTNLELKRTVAAPSVFIFPPSDEQLKSGTASVVCLLNNFYPREAKVQWKVDNALQSGNSQESVTEQDSKDSTYSLSSTLTLSKADYEKHKVYACEVTHQGLSSPVTKSFNRGEC
notes: also called 45H6E8 chimeric antibody

EC50 (read off the curve) [1]: ~0.5 nM
EC50 (read off the curve) [2]: ~0.4 nM
EC50 [3]: 0.61 nM
EC50 [4]: 1.74 nM
EC50 [5]: 0.57 nM
EC50 (read off the curve) [6]: ~0.4 nM
binding result [7]: no binding (tested: 100 nM)
EC50 (read off the curve) [8]: ~0.5 nM
EC50 (read off the curve) [9]: ~1 nM
EC50 (read off the curve) [10]: ~0.7 nM
Kd [11]: 1.68 nM
koff [11]: 0.00135 s⁻¹
kon [11]: 804000 M⁻¹ s⁻¹
Kd [12]: 2.23 nM
koff [12]: 0.002 s⁻¹
kon [12]: 897000 M⁻¹ s⁻¹
EC50 (read off the curve) [13]: ~0.4 nM
EC50 (read off the curve) [14]: ~0.4 nM
B2: P2C47-hIgG1 LALAPG (antibody)
heavy: QVQLVQSGAEVKKPGESLKVSCKASGYTFTSYYMHWVRQAPGQGLEWMGAIEPMYGSTSYAQKFQGRVTMTRDTSTSTVYMELSSLRSEDTAVYYCARGSAYYYDFADYWGQGTLVTVSSASTKGPSVFPLAPSSKSTSGGTAALGCLVKDYFPEPVTVSWNSGALTSGVHTFPAVLQSSGLYSLSSVVTVPSSSLGTQTYICNVNHKPSNTKVDKKVEPKSCDKTHTCPPCPAPEAAGGPSVFLFPPKPKDTLMISRTPEVTCVVVDVSHEDPEVKFNWYVDGVEVHNAKTKPREEQYNSTYRVVSVLTVLHQDWLNGKEYKCKVSNKALGAPIEKTISKAKGQPREPQVYTLPPSREEMTKNQVSLTCLVKGFYPSDIAVEWESNGQPENNYKTTPPVLDSDGSFFLYSKLTVDKSRWQQGNVFSCSVMHEALHNHYTQKSLSLSPGK
light: SYVLTQPSSVSVAPGQTATISCGGHNIGSKNVHWYQQRPGQSPVLVIYQDNKRPSGIPERFSGSNSGNTATLTISGTQAMDEADYYCQVWDNYSVLFGGGTKLTVLGQPKANPTVTLFPPSSEELQANKATLVCLISDFYPGAVTVAWKADGSPVKAGVETTKPSKQSNNKYAASSYLSLTPEQWKSHRSYSCQVTHEGSTVEKTVAPTECS
notes: also called benchmark antibody P2C47
